In the supplement of paper PMC9170038:

System: MS2 coat protein
Assay: apparent KD of MS2 coat protein; designed switch direction (-1 OFF switch, 1 ON switch): -1; higher = weaker reporter binding
Outline: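 The buffer was Tris-HCl pH 7.5 with KCl, MgCl2, BSA, DTT, tRNA and Tween-20. In it, SNAP-549-labelled MS2 coat protein was titrated in doubling steps from 0.7 or 1.5 nM to 3 µM over chip-bound RNA switches transcribed by stalled E. coli RNA polymerase on Illumina chips. Apparent KD is the per-design median over clusters of curve fits to normalised fluorescence.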

[1] = Eterna round: R95, input ligand: FMN 200 uM
[2] = Eterna round: R95, input ligand: microRNA oligo, concentration not stated
[3] = Eterna round: R95, input ligand: none
[4] = input ligand: microRNA oligo, concentration not stated

Sequence	apparent KD of MS2 coat protein [1]	apparent KD of MS2 coat protein [2]	apparent KD of MS2 coat protein [3]	apparent KD of MS2 coat protein (input ligand: FMN 200 uM)	apparent KD of MS2 coat protein (input ligand: none)	apparent KD of MS2 coat protein [4]
GCAGGAUAAGUGAGGAUAUACCUAUGGAUACAUAGGUAGAAGGCACAUGAGGAUCACCCAUGUUCCUAACCUGC [Fiskers BMX 4 - 68] (puzzle: Brourd's mod of Exclusion 4)	0.0709 µM	0.0128 µM	0.0151 µM	–	–	–
GCAGGUCGAGGAUAUACAUGAGGAUCACCCAUGUGGUCACGUGACGAUAGUCACGAAUGUAGAAGGUGACCUGC [E3/3-B2] (Eterna round: R97, puzzle: Exclusion 3)	–	–	–	0.00313 µM	0.207 µM	–
GCAGGUCGAGGAUAUACAUGAGGAUCACCCAUGUUGAUCAAGCGACUUCGGUCGCAAUGUAGAAGGCGACCUGC [E3/7-A6] (Eterna round: R97, puzzle: Exclusion 3)	–	–	–	0.151 µM	1.21 µM	–
GCAGGUUAAGUCAGGAUAUACCUAUGGAUACAUAGGUAGAAGGGACAUGAGGAUCACCCAUGUGCCUCACCUGC [Fiskers BMX 4 - 19] (puzzle: Brourd's mod of Exclusion 4)	–	0.0168 µM	–	–	–	–
GCAGGUUAAGUCAGGAUAUACCUAUGGAUACAUAGGUAGAAGGGACAUGAGGAUCACCCAUGUGCCUCACCUGC [Mod of Eli - Jieux - Brourd's mod of Exclusion 4] (Eterna round: R97, puzzle: Brourd's mod of Exclusion 4)	–	–	–	0.109 µM	0.0261 µM	–
GCAUGAAAUGUGAGGAUAUACCUCUGGAUACAUAGGUAGAAGGCACAUGAGGAUCACCCAUGUCCUAAACAUGC [Fiskers BMX 4 - 27] (puzzle: Brourd's mod of Exclusion 4)	–	0.0322 µM	–	–	–	–
GCAUGGAAAGUGAGGAUAUACCACUGGAUACAGUGGUAGAAGGCACAUGAGGAUCACCCAUGUCUCUACCAUGC [Fiskers BMX 4 - 41] (puzzle: Brourd's mod of Exclusion 4)	–	0.0134 µM	–	–	–	–
GCAUUGAGUGUGAGGAUAUGCUGGUCCUUGGAUCAGCAGAAGGCACAUGAGGAUCACCCAUGUGAAAACAAUGC [JL bmx4 3.12] (puzzle: Brourd's mod of Exclusion 4)	0.125 µM	0.0192 µM	0.0203 µM	–	–	–
GCCAGAGCAGGAUAUCUAAUAUCUCACAUGAGGAUCACCCAUGUCCAGCGAAAGCUGGAGGGAGAAGGGCUCUGGC [Fiskers Ex 5 - 10] (puzzle: Exclusion 5)	0.0343 µM	0.0498 µM	0.0618 µM	–	–	–
GCCAGAGCAGGAUAUUCAAUAAUCCACAUGAGGAUCACCCAUGUCCUGCGAAAGCAGGAGGGAGAAGGGCUCUGGC [Mat - Exclusion 5 - Eli mod - D89] (puzzle: Exclusion 5)	0.0377 µM	0.0757 µM	0.0819 µM	–	–	–
GCCGAAAAUGUGAGGAUAUACCUAUGGAUACAUAGGUAGAAGGCACAUGAGGAUCACCCAUGUCUAAUAACGGC [Eli bmx4 4.26] (Eterna round: R97, puzzle: Brourd's mod of Exclusion 4)	–	–	–	0.521 µM	0.212 µM	–
GCCGAUUAAGUGAGGAUAUACCUAUGGAUACAUAGGUAGAAGGCACAUGAGGAUCACCCAUGUUCCUCAUCGGC [Fiskers BMX 4 - 11] (Eterna round: R96, puzzle: Brourd's mod of Exclusion 4)	–	–	–	0.155 µM	0.0213 µM	0.0165 µM
GCCGAUUAAGUGAGGAUAUACCUAUGGAUACAUAGGUAGAAGGCACAUGAGGAUCACCCAUGUUCCUCAUCGGC [Fiskers BMX 4 - 11] (puzzle: Brourd's mod of Exclusion 4)	–	0.0193 µM	–	–	–	–
GCCGGAUUUGUGAGGAUAUGCCUAUGGAUACAUAGGCAGAAGGCACAUGAGGAUCACCCAUGUACCUCACCGGC [JL-BMX4-4.23 Eli mod] (Eterna round: R97, puzzle: Brourd's mod of Exclusion 4)	–	–	–	0.141 µM	0.0214 µM	–
GCCGGCUAUGUAGGAUAUGGGCCUGAUACGGGUCUAGAAGGACAUGAGGAUCACCCAUGUAUCGUGCGCUGGUGGCUUGCCGGU [-30, -30 kcal and 19% A] (Eterna round: R96, puzzle: Exclusion NG 1)	–	–	–	0.389 µM	0.141 µM	0.119 µM
GCCGGUUAAGUCAGGAUAUACCUAUGGAUACAUAGGUAGAAGGGACAUGAGGAUCACCCAUGUUCCUCAUCGGC [Fiskers BMX 4 - 13] (puzzle: Brourd's mod of Exclusion 4)	–	0.0133 µM	–	–	–	–

Sequence	apparent KD of MS2 coat protein [1]	apparent KD of MS2 coat protein [2]	apparent KD of MS2 coat protein [3]	apparent KD of MS2 coat protein (input ligand: FMN 200 uM)	apparent KD of MS2 coat protein (input ligand: none)	apparent KD of MS2 coat protein [4]
GCCGUAAAUGUGAGGAUAUACCUAUGGAAACAUAGGUAGAAGGCACAUGAGGAUCACCCAUGUUCUUAAUCGGC [Mat - Exclusion 4 - Eli Mod - D2] (Eterna round: R97, puzzle: Brourd's mod of Exclusion 4)	–	–	–	0.689 µM	0.212 µM	–
GCCGUAAAUGUGAGGAUAUACCUAUGGAUACAUAGGUAGAAGGCACAUGAGGAUCACCCAUGUUCCAAAUCGGC [Eli bmx4 4.07] (Eterna round: R97, puzzle: Brourd's mod of Exclusion 4)	–	–	–	0.0479 µM	0.132 µM	–
GCCGUAAAUGUGAGGAUAUACCUAUGGAUACAUAGGUAGAAGGCACAUGAGGAUCACCCAUGUUCUUAAUCGGC [Eli BMX r4m2] (Eterna round: R97, puzzle: Brourd's mod of Exclusion 4)	–	–	–	0.567 µM	0.185 µM	–
GCCUCACUUGAGGAUCACCCAAGUCAGGAUAUCUACAAGCCGACCAUACCGGCUUGCAAGAGAAGGGACUCUAA [Esonreti] (Eterna round: R97, puzzle: Exclusion 1)	–	–	–	0.246 µM	0.0318 µM	–
GCCUCACUUGAGGAUCACCCAAGUCAGGAUAUUCACUGAGCUGCAUAACAACUCGGCCGAAGAAGGGAUUCGGG [Edlacebe] (Eterna round: R97, puzzle: Exclusion 1)	–	–	–	0.0413 µM	0.0849 µM	–
GCGACACGAGGAUAUCGGGUCUCUAACAUGAGGAUCACCCAUGUGGCGGCAGGCGUAAGACGAGAAGGCGUAUUCA [Eternabot (L2) Solution 65] (Eterna round: R97, puzzle: Exclusion 5)	–	–	–	0.0266 µM	0.0343 µM	–
GCGAGCAGACGGAGAUCCAACAUGAGGAUCACCCAUGUCUCGCAAGCUUUUUGCUUGUCUUAUCCUCCUCUGUUUAG [Design #8] (Eterna round: R97, puzzle: Sensor, turn-off variant 1)	–	–	–	0.0813 µM	0.0804 µM	–
GCGCACUAAGUGAGGAUAUCGAUUUUUUUUAGGAUCGAGAAGGCACAUGAGGAUCACCCAUGUUUGACGUGCGC [JR_BMOE4_Sub098] (puzzle: Brourd's mod of Exclusion 4)	–	0.015 µM	–	–	–	–
GCGCAGGUAGGAUAUCGAGCUAAGAACAUGAGGAUCACCCAUGUGUUCGGUAGCCAACUUCGAGAAGGACCAAAUA [Ceati] (puzzle: Exclusion 5)	0.0239 µM	0.0114 µM	0.0149 µM	–	–	–
GCGCCAUCGUGAGAUGGCGUAAUUACAUGAGGAUCACCCAUGUAGGAUAUCGAUUGCUUUGCAGUCGAGAAGGGCAUGUAUAAU [JL ENG3 3.94] (Eterna round: R96, puzzle: Exclusion NG 3)	–	–	–	0.045 µM	0.0379 µM	0.0265 µM
GCGCCAUCGUGAGAUGGCGUUCCGACAUGAGGAUCACCCAUGUAGGAUAUCGAUUGCUUUGCAGUCGAGAAGGGCGUGAUAAGU [JL ENG3 3.73] (Eterna round: R96, puzzle: Exclusion NG 3)	–	–	–	0.0183 µM	0.0229 µM	0.0178 µM
GCGGACUAGAUCGUGAGAUCAGAGACAUGAGGAUCACCCAUGUAGGAUAUCGAUUCGAAACGAAUCGAGAAGGGCAUAGUCCGC [JL denovo 7] (Eterna round: R96, puzzle: Exclusion NG 3)	–	–	–	0.0171 µM	0.0159 µM	0.0148 µM
GCGGACUUGAACGUGAGUUCAGAGACAUGAGGAUCACCCAUGUAGGAUAUCGAUUCGAAACGAAUCGAGAAGGGCAUGGUCCGC [JL denovo 14] (Eterna round: R96, puzzle: Exclusion NG 3)	–	–	–	0.0374 µM	0.0288 µM	0.0213 µM
GCGUGGCGUAAGGAUAUCCAUACGGUAUAACCGGGAGAAGGUACGACAUGAGGAUCACCCAUGUGGCCUGGAAA [Sorimaat] (Eterna round: R97, puzzle: Exclusion 6)	–	–	–	0.0644 µM	0.0222 µM	–
GCGUUCUGAGGAUAUACAUGAGGAUCACCCAUGUUGAGAAUUAGGUAUAAGGGAUUUUGUAGAAGGCAGAGUGC [JR_Ex3_Sub072] (Eterna round: R97, puzzle: Exclusion 3)	–	–	–	0.228 µM	0.0599 µM	–
